Reference: patent US20070160576A1, “IL-17A/F heterologous polypeptides and therapeutic uses thereof” (Genentech, Inc., priority 2001, published 2007)

B1: PRO21175 (IL-17D ligand) (ligand, UniProt Q8TAD2 16-202, looked up)
chain: AGAPRAGRRPARPRGCADRPEELLEQLYGRLAAGVLSAFHHTLQLGPREQARNASCPAGGRPADRRFRPPTNLRSVSPWAYRISYDPARYPRYLPEAYCLCRGCLTGLFGEEDVRFRSAPVYMPTVVLRRTPACAGGRSVYTEAYVTIPVGCTCVPEPEKDADSINSSIDKQGAKLLLGPNDAPAGP
B2: IL-17F: human IL-17F ligand, SEQ ID NO:4 (protein, listed as Homo sapiens)
chain: MTVKTLHGPAMVKYLLLSILGLAFLSEAAARKIPKVGHTFFQKPESCPPVPGGSMKLDIGIINENQRVSMSRNIESRSTSPWNYTVTWDPNRYPSEVVQAQCRNLGCINAQGKEDISMNSVPIQQETLVVRRKHQGCSVSFQLEKVLVTVGCTCVTPVIHHVQ

Legend:
[1] = target: T1, human IL-17 receptor (IL-17R, PRO1) as tested in the receptor/ligand screen (human, UniProt Q96F46 33-320, limits assumed); test: receptor/ligand screen, FIG. 14
T1 construct: also called IL-7R (as misprinted)
Excerpt: A PRO polypeptide of the present invention suspected of being a ligand for a receptor is expressed as a fusion protein containing the Fc domain of human IgG (an immunoadhesin). Receptor-ligand binding is detected by allowing interaction of the immunoadhesin polypeptide with cells (e.g. Cos cells) expressing candidate PRO polypeptide receptors and visualization of bound immunoadhesin with fluorescent reagents directed toward the Fc fusion domain and examination by microscope. Cells expressing candidate receptors are produced by transient transfection, in parallel, of defined subsets of a library of cDNA expression vectors encoding PRO polypeptides that may function as receptor molecules. Cells are then incubated for 1 hour in the presence of the PRO polypeptide immunoadhesin being tested for possible receptor binding. The cells are then washed and fixed with paraformaldehyde. The cells are then incubated with fluorescent conjugated antibody directed against the Fc portion of the PRO polypeptide immunoadhesin (e.g. FITC conjugated goat anti-human-Fc antibody). The cells are then washed again and examined by microscope. A positive interaction is judged by the presence of fluorescent labeling of cells transfected with cDNA encoding a particular PRO polypeptide receptor or pool of receptors and an absence of similar fluorescent labeling of similarly prepared cells that have been transfected with other cDNA or pools of cDNA. If a defined pool of cDNA expression vectors is judged to be positive for interaction with a PRO polypeptide immunoadhesin, the individual cDNA species that comprise the pool are tested individually (the pool is “broken down”) to determine the specific cDNA that encodes a receptor able to interact with the PRO polypeptide immunoadhesin.
In another embodiment of this assay, an epitope-tagged potential ligand PRO polypeptide (e.g., 8 histidine “His” tag) is allowed to interact with a panel of potential receptor PRO polypeptide molecules that have been expressed as fusions with the Fc domain of human IgG (immunoadhesins). Following a 1 hour co-incubation with the epitope tagged PRO polypeptide, the candidate receptors are each immunoprecipitated with protein A beads and the beads are washed. Potential ligand interaction is determined by Western blot analysis of the immunoprecipitated complexes with antibody directed towards the epitope tag.

IL-17R [2] = target: T2, IL-17R (Homo sapiens, UniProt Q96F46); test: SPR (BIAcore) binding measurements; conditions: IL-17R up to 1 ┘M
T2 construct: the extracellular domains (ECDs) of either of the two receptors IL-17R (designated PRO1) and IL-17RH1 (PRO5801)
Method: (§1) The kinetics and affinity of IL-17, IL-17E (PRO10272), or IL-17F (PRO20110) binding to IL-17R or IL-17RH1 (PRO5801) were determined by SPR measurements on a Pharmacia BIAcore 1000 instrument (Phamacia Biosensor, Piscataway N.J.). IL-17 ligand or receptor was immobilized onto a flow cell of a CM5 sensor chip via random coupling to amino groups, N-hydroxysuccinimide chemistry, by using a protocol developed by the manufacturer. An immobilization level of about 500 resonance units (RU) was obtained for IL-17R, IL-17RH1, and IL-17F, whereas IL-17 and IL-17E immobilization levels were 1200 and 1500 RU, respectively. A strong signal was obtained for IL-17R binding to immobilized IL-17. […] After blocking unreacted sites with ethanolamine, binding measurements were performed using a flow rate of 25 ┘L/min. Sensorgrams-were obtained for a series of six, two-fold serially diluted protein solutions. The highest concentration used was 1000 or 500 nM protein and the solutions were prepared in the running buffer, PBS containing 0.05% Tween-20. The sensor chip surface was regenerated between binding cycles by injection of a 25 ┘L aliquot of 0.1 M acetic acid, 0.2 M NaCl, pH 3 to elute non-covalent bound protein. Sensorgrams were evaluated according to a 1:1 binding model by non-linear regression analysis using software supplied by the manufacturer. In separate experiments to measure competition between IL-17 variants for binding receptors, a fixed concentration of receptor was incubated with a varied concentration of IL-17 protein followed by injection of this mixture onto a flow cell having immobilized IL-17 protein. The amount of bound receptor was determined from the resonance signal obtained after completion of the association phase.

IL-17RH1 (PRO5801) = target: T3, IL-17RH1 (PRO5801) (Homo sapiens, UniProt Q9NRM6); test: SPR (BIAcore) binding measurements; conditions: IL-17RH1 up to 0.5 ┘M
T3 construct: the extracellular domains (ECDs) of either of the two receptors IL-17R (designated PRO1) and IL-17RH1 (PRO5801)
T3 sequence (Q9NRM6 18-292 limits assumed): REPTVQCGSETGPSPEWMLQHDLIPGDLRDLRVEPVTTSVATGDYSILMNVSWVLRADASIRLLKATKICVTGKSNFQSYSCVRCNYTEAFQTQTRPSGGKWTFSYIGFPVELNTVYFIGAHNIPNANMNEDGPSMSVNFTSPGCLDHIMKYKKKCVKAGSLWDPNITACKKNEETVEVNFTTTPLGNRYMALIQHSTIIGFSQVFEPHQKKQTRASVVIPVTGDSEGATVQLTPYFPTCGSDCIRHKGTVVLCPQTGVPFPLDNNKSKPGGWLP
Method: as §1

IL-17R [3] = target: T2, IL-17R; test: SPR competition for receptor binding to immobilized IL-17; conditions: IL-17R 500 nM; IL-17F at 2 ┘M
Method: as §1, with “The sensor chip surface was regenerated between binding cycles by injection of a 25 ┘L aliquot of 0.1 M acetic acid, 0.2 M NaCl, pH 3 to elute non-covalent bound protein.” left out, “In separate experiments to measure competition between IL-17 variants for binding receptors, a fixed concentration of receptor was incubated with a varied concentration of IL-17 protein followed by injection of this mixture onto a flow cell having immobilized IL-17 protein.” left out, “phase. […]” for “phase.”

TK-10 cells = test: IL-8 and IL-6 production in TK-10 cells (ELISA of conditioned media); type: cell-based, human; conditions: TK-10 cells, 24 hours, IL-8 ELISA
Method: Fractions were tested by incubation with TK-10 cells for 24 hours (0.033 microliters fraction/ml of cell culture media). Conditioned media was then collected and IL-8 and IL-6 concentration measurements were performed on each fraction by ELISA. […] Gels, blots, amino acid sequence and activity assays were run on this fraction (FIG. 3). Alternatively, fraction 31 and the remaining volume of fraction 32, from the HiLoad S Sepharose run were pooled and dialyzed against Buffer A for eight hours using a 10 kD cutoff membrane and passed through a 0.2 micron filter. […] Fractions 26-43 were assayed and protein concentrations were determined by amino acid analysis. Pure IL-17A/F was identified in fractions 31-33 as a single protein with apparent molecular mass of 30-35 kD. The concentrations of fractions 31, 32 and 33 were 0.258, 0.359 and 0.291 mg/ml respectively.
IL-17A/F, IL-17 and IL-17F were incubated with TK-10 cells at the indicated concentrations for 24 hours.
TK-10 conditioned media was collected and analyzed by IL-8 ELISA and IL-6 ELISA.

IL-17RH1 = target: T4, IL-17RH1 (Homo sapiens, UniProt Q9NRM6); test: SPR competition for receptor binding to immobilized IL-17E; conditions: IL-17RH1 31 nM; IL-17F at 1.3 ┘M
T4 construct: the extracellular domains (ECDs) of either of the two receptors IL-17R (designated PRO1) and IL-17RH1 (PRO5801)
T4 sequence (Q9NRM6 18-292 limits assumed): T3 sequence (Q9NRM6 18-292 limits assumed)
Method: as §1, with “The sensor chip surface was regenerated between binding cycles by injection of a 25 ┘L aliquot of 0.1 M acetic acid, 0.2 M NaCl, pH 3 to elute non-covalent bound protein.” left out, “In separate experiments to measure competition between IL-17 variants for binding receptors, a fixed concentration of receptor was incubated with a varied concentration of IL-17 protein followed by injection of this mixture onto a flow cell having immobilized IL-17 protein.” left out, “phase. […]” for “phase.”

[4] = target: T5, Cos cells transfected with IL-17R (Homo sapiens, UniProt Q96F46); test: Binding to Cos cells transfected with IL-17R; type: cell-based; conditions: data not shown
T5 construct: expressed in transfected cells; host or cells: Cos cells

Molecule	binding result [1]	binding of IL-17R to immobilized IL-17F (IL-17R [2])	binding of IL-17RH1 to immobilized IL-17F (IL-17RH1 (PRO5801))	competition for binding of IL-17R to immobilized IL-17 (IL-17R [3])	IL-8 production (TK-10 cells)	competition for binding of IL-17RH1 to immobilized IL-17E (IL-17RH1)	binding to Cos cells transfected with IL-17R [4]
B1	no binding	–	–	–	–	–	–
B2	–	no binding	no binding	no competition	production of IL-8	could not block binding	enhanced binding
